The values that follow come from US20190077876A1 (AbbVie / Abbott, published 2019).

Assay [1] has as its target T1, human CLDN6 protein (human, UniProt P56747 1-220).
T1 sequence (looked up): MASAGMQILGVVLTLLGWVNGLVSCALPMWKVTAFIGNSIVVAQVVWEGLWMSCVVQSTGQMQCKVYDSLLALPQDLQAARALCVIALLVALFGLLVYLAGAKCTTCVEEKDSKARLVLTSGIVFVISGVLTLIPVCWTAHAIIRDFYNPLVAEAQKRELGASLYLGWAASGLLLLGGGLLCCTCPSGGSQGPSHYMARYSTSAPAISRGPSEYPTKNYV
The experiment in a line: cell-based or functional assay.

The target of assay [2] is T2, human CLDN9 protein (human, UniProt O95484 1-217).
T2 sequence (looked up): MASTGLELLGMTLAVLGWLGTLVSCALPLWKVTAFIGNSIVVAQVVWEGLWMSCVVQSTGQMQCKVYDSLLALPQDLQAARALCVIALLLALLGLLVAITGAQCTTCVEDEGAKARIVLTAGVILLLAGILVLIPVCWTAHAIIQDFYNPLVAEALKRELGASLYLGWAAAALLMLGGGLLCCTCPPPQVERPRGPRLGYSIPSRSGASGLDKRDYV
The experiment in a line: cell-based or functional assay.

Assay [3] concerns the target T1, human CLDN6 protein. The experiment in a line: cell-based or functional assay. This is another data set of the same source.
Assay [4] addresses T2, human CLDN9 protein. The experiment in a line: cell-based or functional assay. The source holds these as a separate data set.
The target in assay [5] is T3, human CLDN4 protein (human, UniProt O14493 1-209).
T3 construct: whole, on cells; also called hCLDN4; claudin 4
T3 sequence (looked up): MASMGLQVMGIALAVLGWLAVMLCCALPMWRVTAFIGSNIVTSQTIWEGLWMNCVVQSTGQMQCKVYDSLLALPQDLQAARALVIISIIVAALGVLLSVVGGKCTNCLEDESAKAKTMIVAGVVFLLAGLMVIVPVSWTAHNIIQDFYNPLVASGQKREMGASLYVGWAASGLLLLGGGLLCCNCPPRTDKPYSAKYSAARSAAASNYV
The experiment in a line: flow cytometry on cells overexpressing human CLDN4; Alexa 647 anti-mouse secondary; single point.

In assay [6] the target is T3, human CLDN4 protein. Briefly: flow cytometry on cells overexpressing human CLDN4; 10 µg/mL purified antibody, Alexa 647 anti-mouse secondary; single point. On the technique in general: Flow cytometry measures light scatter and fluorescence of single cells or particles in a stream.
Assay [7] has as its target T1, human CLDN6 protein. Briefly: flow cytometry on cells overexpressing human CLDN6; 10 µg/mL purified antibody, Alexa 647 anti-mouse secondary; single point.
Assay [8] has as its target T2, human CLDN9 protein. Briefly: flow cytometry on cells overexpressing human CLDN9; 10 µg/mL purified antibody, Alexa 647 anti-mouse secondary; single point.
Assay [9] addresses T1, human CLDN6 protein. The experiment in a line: flow cytometry, antibody titration on HEK-293T cells overexpressing CLDN6, four parameter fit of fraction maximal binding; HEK-293T cells overexpressing CLDN6.
Source text: (§1) Following additional washing with PBS, cells were fixed with paraformaldehyde (PFA) and read on a BD FACS Canto II flow cytometer in accordance with the manufacturer's instructions. MFI values were normalized using fluorescent microspheres (Bangs Laboratories) according to manufacturer's instructions.
For assay [10], the target named is T2, human CLDN9 protein. Briefly: flow cytometry, antibody titration on HEK-293T cells overexpressing CLDN9, four parameter fit of fraction maximal binding; HEK-293T cells overexpressing CLDN9.
Source text: as §1
Assay [11] addresses hCLDN proteins on the surface of PDX tumor cells. The experiment in a line: flow cytometry on OV44 (OV-S) PDX tumor cells, NTG subpopulation; change in geometric MFI against the IgG1 isotype control.
For assay [12] the target is unchanged. The experiment in a line: flow cytometry on PA20 (PDAC) PDX tumor cells, NTG subpopulation; change in geometric MFI against the IgG1 isotype control.
Assay [13] has the same target. Briefly: flow cytometry on PA24 (PDAC) PDX tumor cells, NTG subpopulation; change in geometric MFI against the IgG1 isotype control.
For assay [14] the target is unchanged. Briefly: flow cytometry on PA49 (PDAC) PDX tumor cells, NTG subpopulation; change in geometric MFI against the IgG1 isotype control.
Assay [15] shares this target. Briefly: flow cytometry on LU22 (LU-Sq) PDX tumor cells, NTG subpopulation; change in geometric MFI against the IgG1 isotype control.
The target is the same in assay [16]. Briefly: flow cytometry on LU135 (LU-Ad) PDX tumor cells, NTG subpopulation; change in geometric MFI against the IgG1 isotype control.
Assay [17] shares this target. Briefly: flow cytometry on OV54MET (OV-S) PDX tumor cells, NTG subpopulation; change in geometric MFI against the IgG1 isotype control.
Assay [18] has the same target. Briefly: flow cytometry on OV91MET (OV-PS) PDX tumor cells, NTG subpopulation; change in geometric MFI against the IgG1 isotype control.
For assay [19] the target is unchanged. The experiment in a line: flow cytometry on OV44 (OV-S) PDX tumor cells, CSC subpopulation (EPCAM+ CD46hi CD324+); change in geometric MFI against the IgG1 isotype control.
Assay [20] shares this target. Briefly: flow cytometry on PA20 (PDAC) PDX tumor cells, CSC subpopulation (EPCAM+ CD46hi CD324+); change in geometric MFI against the IgG1 isotype control.
Assay [21] has the same target. Briefly: flow cytometry on PA24 (PDAC) PDX tumor cells, CSC subpopulation (EPCAM+ CD46hi CD324+); change in geometric MFI against the IgG1 isotype control.
Assay [22] shares this target. The experiment in a line: flow cytometry on PA49 (PDAC) PDX tumor cells, CSC subpopulation (EPCAM+ CD46hi CD324+); change in geometric MFI against the IgG1 isotype control.
For assay [23] the target is unchanged. The experiment in a line: flow cytometry on LU22 (LU-Sq) PDX tumor cells, CSC subpopulation (EPCAM+ CD46hi CD324+); change in geometric MFI against the IgG1 isotype control.
Assay [24] has the same target. The experiment in a line: flow cytometry on LU135 (LU-Ad) PDX tumor cells, CSC subpopulation (EPCAM+ CD46hi CD324+); change in geometric MFI against the IgG1 isotype control.
For assay [25] the target is unchanged. Briefly: flow cytometry on OV54MET (OV-S) PDX tumor cells, CSC subpopulation (EPCAM+ CD46hi CD324+); change in geometric MFI against the IgG1 isotype control.
The target is the same in assay [26]. Briefly: flow cytometry on OV91MET (OV-PS) PDX tumor cells, CSC subpopulation (EPCAM+ CD46hi CD324+); change in geometric MFI against the IgG1 isotype control.

B1: SC27.103 mouse monoclonal anti-CLDN antibody (antibody, V domains shown)
VH: EVHLQQSGPELVKPGGSMKISCKASGYSFTGYTMNWVKQSHGKNLEWIGLFNPYNGGTSYNQKFKGKATLTVDKSSSTAYMELLSLTSEDSAVYYCARCYRYDGLDYWGQGTTLTVSS
VL: QIVLTQSPAIMSASLGERVTMTCTASSSVSSSYLHWYQQKPGSSPTLWIYRTSDLASGVPARFSGSGSGTSYSLTISSMEAEDAATYYCHQYHRSPWTFGGGTRLEIK
Take B1: the results for the “apparent IC50 of saporin-mediated cell killing” value in the assay with human CLDN6 protein [1] and in the assay with human CLDN9 protein [2] were 58 nM and 466 nM, respectively. In addition, the “apparent IC50 of killing of HEK-293T cells overexpressing hCLDN6; antibody titrated 0.15 to 1000 nM with anti-mouse IgG Fab-saporin, CellTiter-Glo” value in the assay with human CLDN6 protein [3] amounted to 57.7 nM. In addition, the “apparent IC50 of killing of HEK-293T cells overexpressing hCLDN9; antibody titrated 0.15 to 1000 nM with anti-mouse IgG Fab-saporin, CellTiter-Glo” value with human CLDN9 protein [4] was 466 nM. The binding result in the assay with human CLDN4 protein [5] is “no binding (tested: 10 µg/mL)”. For the same molecule, the MFI with human CLDN4 protein [6] came out at 75; with human CLDN6 protein [7], 99600; with human CLDN9 protein [8] it was 12100.

B2: hSC27.22 humanized anti-CLDN antibody (antibody, human IgG1, kappa, V domains shown)
VH: QVQLVQSGAEVKKPGASVKVSCKASGYTFTSYWMNWVRQAPGQRLEWMGMIHPSDSEIRLNQKFKDRVTITRDTSASTAYMELSSLRSEDTAVYYCARIDSYYGYLFYFDYWGQGTTVTVSS
VL: DIVMTQSPDSLAVSLGERATINCRASQTVSTSSYSYMHWYQQKPGQPPKLLIYFASNVESGVPDRFSGSGSGTDFTLTISSLQAEDVAVYYCQHSWEIPWTFGQGTKLEIKR
Turning to B2, the concentration for a half-maximal effect (EC50) (as a rule, the concentration that produces a half-maximal response) came to 3.45 µg/mL with human CLDN6 protein [9] and 4.66 µg/mL with human CLDN9 protein [10].

B3: SC27.1 mouse monoclonal anti-CLDN antibody (antibody, V domains shown)
VH: EVQLQESRPELVKPGASVKISCKTSGYTFTEYTLHWVKQSHGKSLEWIGGINPNNGDTIYNQKFKGKATLTVDKSSSTAYMELRSLTSEYSAVYYCARRAITVYAMDYWGQGTSVTVSS
VL: DIQMTQSSSSFSVSLGDRVTITCKASEDIYNRLAWYQQKPGNAPRLLISGATSLETGTPSRFSGSGSGKDYTLSITSLRTEDAATYYCQQYWSTPLTFGTGTKLELK
B3: the ΔMFI came to 53 in assay [11]; 60 in assay [12]; 223 in assay [13]; 0 in assay [14]; 31 in assay [15]; 17 in assay [16]. Further, the ΔMFI was 21 in [17]; 0 in assay [18]; 643 in assay [19]; 250 in assay [20]; 1580 in assay [21]; 194 in [22]. For the same molecule, the ΔMFI in assay [23] stood at 733; in assay [24], 88; in assay [25], 763; in assay [26], 118.
